This is an account of results in patent publication US20250154283A1 (published 2025).

In assay [1] the target is T1, biotinylated human VWF cysteine knot (CK) domain construct (human, UniProt P04275 2724-2813, biotinylated in vitro (BirA) on the biotinylation tag; one N-glycan).
T1 construct: Expressed in HEK293 EBNA cells; disulfide-linked homodimer; also called human VWF CK; human VWF CK domain; not shown: in vitro biotinylation tag, HRV-3C site and 3 VWF residues before the CK domain
The experiment in a line: SPR, scFv captured via anti-SV5, CK domain injected, pH 5.5, apparent Kd. (In general: Surface plasmon resonance follows binding to a sensor surface in real time, without labels.)

Assay [2] deals with T1, biotinylated human VWF cysteine knot …. The experiment in a line: SPR, scFv captured via anti-SV5, CK domain injected, pH 7.4, apparent Kd.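 Also: scFvs from crude yeast supernatants printed on an amine-coupled anti-SV5 lawn, Kd computed as koff over kon, likely overestimating affinity because the CK construct is dimeric.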
The target of assay [3] is T2, biotinylated cynomolgus monkey VWF cysteine knot (CK) domain construct (cynomolgus monkey, biotinylated in vitro (BirA) on the biotinylation tag; one N-glycan).
T2 construct: Expressed in HEK293 EBNA cells; disulfide-linked homodimer; also called cyno VWF CK; cyno VWF CK domain; not shown: in vitro biotinylation tag, HRV-3C site and 3 VWF residues before the CK domain
T2 chain: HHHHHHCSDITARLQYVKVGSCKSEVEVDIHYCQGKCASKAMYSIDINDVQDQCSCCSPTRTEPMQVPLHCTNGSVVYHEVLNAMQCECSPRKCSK
The assay is described as above.

B1: Lib4_P2_A1_scFv (scFv)
scFv: QVQLQESGPGLVKPSQTLSLTCTVSGASFGDNYWSWIRQPPGKGLEWIGYIDTSGSSDYNPSLKSRVTMSVDTSKNQFSLKVNSVTAADTAVYYCARVSWGYYAMDVWGQGTTVTVSSSGGSTITSYNVYYTKLSSSGTEIVMTQSPATLSLSPGERATLSCRASQGISGRLAWYQQKPGQAPRLLIYDVSTRATGIPARFSGSGSGTDFTLTISSLEPEDFAVYYCQQYDTSAPLTFGGGTKVEIK
notes: VH-linker-VL; not shown: C-terminal 3xFLAG and SV5 tags
Regarding B1, the Kd in assay [1] was determined as 0.235 nM; in assay [2] it was 1.2 nM; in assay [3] it was 0.031 nM.

B2: 4035_Lib1_scFv (scFv)
scFv: QVQLVQSGAEVKKPGASVKVSCKVSGYAFPSYGIHWVRQAPGKGLEWMGGISAFTGDTIYAQKFQGRVTMTEDTSTDTAYMELSSLKSEDTAVYYCASGPTNVLTGLMESAEYFQHWGQGTLVTVSSSGGSTITSYNVYYTKLSSSGTDIQMTQSPSSVSASVGDRVTITCRASQGISRDLAWYQQKPGKAPKLLIYGASGRATGVPSRFSGSGSGTDFTLTISSLQPEDFANYYCQQSYITPTTFGGGTKVEIK
notes: as for B1
Consider B2, for which the values for the Kd in assay [1], in assay [2] and in assay [3] were 1.41 nM, 1.76 nM and 0.974 nM, respectively.

B3: Lib6_P3_A1_scFv (scFv)
scFv: QVQLVQSGAEVKKPGASVKVSCKVSGDTLSNYAIHWVRQAPGKGLEWMGGINPNAGTTIYAQKFQGRVTMTEDTSTDTAYMELSSLKSEDTAVYYCARDSSSWCPVGYYYYYMDVWGKGTTVTVSSSGGSTITSYNVYYTKLSSSGTDIQMTQSPSSVSASVGDRVTITCRASQSIGDFLAWYQQKPGKAPKLLIYDASHLQTGVPSRFSGSGSGTDFTLTISSLQPEDFANYYCQQTSTIPPTFGGGTKVEIK
notes: as for B1
In the case of B3, the Kd is 1.32 nM in assay [1], 1.41 nM in assay [2] and 0.017 nM in assay [3].

B4: Lib6_P3_E10_scFv (scFv)
scFv: QVQLVQSGAEVKKPGASVKVSCKVSGDTLSNYAIHWVRQAPGKGLEWMGGINPNAGTTIYAQKFQGRVTMTEDTSTDTAYMELSSLKSEDTAVYYCARDSSSWCPVGYYYYYMDVWGKGTTVTVSSSGGSTITSYNVYYTKLSSSGTDIQMTQSPSSVSASVGDRVTITCRASQSIGDFLAWYQQKPGKAPKLLIYDASHLQTGVPSRFSGSGSGTDFTLTISSLQPEDFANYYCQQTSTIPPTFGGGTKVEIK
notes: as for B1
As for B4, the Kd in assay [1] came out at 0.659 nM; in assay [2] it was 1.72 nM; in assay [3] it was 1.96 nM.

B5: Lib4_P2_B1_scFv (scFv)
scFv: QVQLVQSGAEVKKPGASVKVSCKVSGDTLSNYAIHWVRQAPGKGLEWMGGINPNAGTTIYAQKFQGRVTMTEDTSTDTAYMELSSLKSEDTAVYYCARDSSSWCPVGYYYYYMDVWGKGTTVTVSSSGGSTITSYNVYYTKLSSSGTDIQMTQSPSSVSASVGDRVTITCRASQSIGDFLAWYQQKPGKAPKLLIYDASHLQTGVPSRFSGSGSGTDFTLTISSLQPEDFANYYCQQTSTIPPTFGGGTKVEIK
notes: as for B1
Regarding B5, the Kd in assay [1] amounted to 2.12 nM; in assay [2], 1.89 nM; in assay [3] it was 0.48 nM.

B6: Lib4_P2_A2_scFv (scFv)
scFv: QVQLVQSGAEVKKPGASVKVSCKVSGDTLSNYAIHWVRQAPGKGLEWMGGINPNAGTTIYAQKFQGRVTMTEDTSTDTAYMELSSLKSEDTAVYYCARDSSSWCPVGYYYYYMDVWGKGTTVTVSSSGGSTITSYNVYYTKLSSSGTDIQMTQSPSSVSASVGDRVTITCRASQSIGDFLAWYQQKPGKAPKLLIYDASHLQTGVPSRFSGSGSGTDFTLTISSLQPEDFANYYCQQTSTIPPTFGGGTKVEIK
notes: as for B1
Turning to B6, the Kd in assay [1] amounted to 0.604 nM; in assay [2], 2.05 nM; in assay [3], 0.305 nM.

B7: 4956_Lib1_scFv (scFv)
scFv: QVQLVQSGAEVKKPGASVKVSCKVSGYTLTSNYIHWVRQAPGKGLEWMGGFNPSSGSTIYAQKFQGRVTMTEDTSTDTAYMELSSLKSEDTAVYYCARTLYDFWSGYLDAFDIWGQGTMVTVSSSGGSTITSYNVYYTKLSSSGTDIQMTQSPSSVSASVGDRVTITCRASQNIRSSLAWYQQKPGKAPKLLIYAASNLEPGVPSRFSGSGSGTDFTLTISSLQPEDFANYYCQQYEDTPLTFGGGTKVEIK
notes: as for B1
Consider B7, for which the Kd in assay [1] is 1.91 nM; in assay [2], 2.22 nM; in assay [3], 1.36 nM.

B8: 96_Lib4_scFv (scFv)
scFv: QVQLQESGPGLVKPSQTLSLTCTVSGESFSTSYWSWIRQPPGKGLEWIGYITHSGYTDYNPSLKSRVTMSVDTSKNQFSLKVNSVTAADTAVYYCARGGRFPFWYFDLWGRGSLVTVSSSGGSTITSYNVYYTKLSSSGTEIVMTQSPATLSLSPGERATLSCRASRSIGSNLAWYQQKPGQAPRLLIYGATTRATGIPARFSGSGSGTDFTLTISSLEPEDFAVYYCQQYKNDATFGGGTKVEIK
notes: as for B1
For B8, the Kd came out at 1.4 nM in assay [1], 1.77 nM in assay [2] and 1.21 nM in assay [3].

B9: Lib6_P3_B9_scFv (scFv)
scFv: EVQLVQSGAEVKKPGASVKVSCKASGDTFSSHVISWVRQAPGQGLEWMGGINPRTGTTIYAQKLQGRGTMTTDPSTSTAYMELRSLRSDDTAVYYCARTRPWAGLDVWGQGTTVTVSSSGGSTITSYNVYYTKLSSSGTESALTQPASVSGSPGQSITISCTGTNIEYKGVSWYQQHPGKAPKLMIYGVDKRPSGVSNRFSGSKSGNTASLTISGLQAEDEADYYCQAWGTSTAIFGGGTKLTVL
notes: as for B1
As for B9, the results for the Kd in assay [1], in assay [2] and in assay [3] were 1.22 nM, 1.41 nM and 1.03 nM, respectively.

B10: 256_Lib8_scFv (scFv)
scFv: EVQLVESGGGLVQPGRSLRLSCAASGFTVSSNAMHWVRQAPGKGLEWVSAIGTFADTDYADSVEGRFTISRDNAKNSLYLQMNSLRAEDTAVYYCAREGAAAGTNFDYWGQGTLVTVSSSGGSTITSYNVYYTKLSSSGTDIQMTQSPSSLSASVGDRVTITCRASQGIRSYLAWYQQKPGKAPKLLIYGASTLEGGVPSRFSGSGSGTDFTLTISSLQPEDVATYYCQQSYSTPPKFGGGTKVEIK
notes: as for B1
As for B10, the Kd is 0.731 nM in assay [1], 1.76 nM in assay [2] and 0.758 nM in assay [3].

B11: 2301_Lib4_scFv (scFv)
scFv: QVQLQESGPGLVKPSQTLSLTCTVSGASISTSDHSWSWIRQPPGKGLEWIGYIRDTGSTDYNPSLKSRVTMSVDTSKNQFSLKVNSVTAADTAVYYCAISSTERWKQSFGVDTEYFQHWGQGTLVTVSSSGGSTITSYNVYYTKLSSSGTEIVMTQSPATLSLSPGERATLSCRASRYVSTNLAWYQQKPGQAPRLLIYDAVTRAPGIPARFSGSGSGTDFTLTISSLEPEDFAVYYCQQYHSLPLIFGGGTKVEIK
notes: as for B1
Consider B11, for which the Kd turned out to be 3.87 nM in assay [1], 1.84 nM in assay [2] and 0.803 nM in assay [3].

B12: Lib4_P2_A3_scFv (scFv)
scFv: QVQLQESGPGLVKPSQTLSLTCTVSGVSLSTSDYSWSWIRQPPGKGLEWIGYISPPGRSDYNPSLKSRVTMSVDTSKNQFSLKVNSVTAADTAVYYCARHSSSGWYSTYDFDSWGQGTMVTVSSSGGSTITSYNVYYTKLSSSGTEIVMTQSPATLSLSPGERATLSCRASQNIHSNLAWYQQKPGQAPRLLIYGATTRATGIPARFSGSGSGTDFTLTISSLEPEDFAVYYCQQSYTTPLTFGGGTKVEIK
notes: as for B1
Regarding B12, the values for the Kd in assay [1], in assay [2] and in assay [3] were 1.93 nM, 1.48 nM and 0.387 nM, respectively.

B13: 11485_Lib1_scFv (scFv)
scFv: QVQLVQSGAEVKKPGASVKVSCKVSGAPSAAIIHWVRQAPGKGLEWMGGFTQIFGTAIYAQKFQGRVTMTEDTSTDTAYMELSSLKSEDTAVYYCAREGIGGHDAFDIWGQGTMVTVSSSGGSTITSYNVYYTKLSSSGTDIQMTQSPSSVSASVGDRVTITCRASQDISKNLAWYQQKPGKAPKLLIYKASKLESGVPSRFSGSGSGTDFTLTISSLQPEDFANYYCLHDYTYPPTFGGGTKVEIK
notes: as for B1
B13: the Kd in assay [1] was 1.82 nM; in assay [2], 2.22 nM; in assay [3], 3.16 nM.

B14: 487_Lib1_scFv (scFv)
scFv: QVQLVQSGAEVKKPGASVKVSCKVSGYTFTSHIIHWVRQAPGKGLEWMGGMNPYSNKAIYAQKFQGRVTMTEDTSTDTAYMELSSLKSEDTAVYYCARDASDYGDYGYYYYYMDVWGKGTTVTVSSSGGSTITSYNVYYTKLSSSGTDIQMTQSPSSVSASVGDRVTITCRASQSIGDFLAWYQQKPGKAPKLLIYDASHLQTGVPSRFSGSGSGTDFTLTISSLQPEDFANYYCQQTSTIPPTFGGGTKVEIK
notes: as for B1
Consider B14, for which the values for the Kd in assay [1], in assay [2] and in assay [3] were 0.829 nM, 1.5 nM and 1.51 nM, respectively.

B15: 189_Lib4_scFv (scFv)
scFv: QVQLQESGPGLVKPSQTLSLTCTVSGVTFSSYGWSWIRQPPGKGLEWIGYVDTSGSTDYNPSLKSRVTMSVDTSKNQFSLKVNSVTAADTAVYYCARTTYYYDSSGFARGWFDPWGQGTLVTVSSSGGSTITSYNVYYTKLSSSGTEIVMTQSPATLSLSPGERATLSCRASQSVPSSHLAWYQQKPGQAPRLLIYDATNRAAGIPARFSGSGSGTDFTLTISSLEPEDFAVYYCQQYDNWPSPSFGGGTKVEIK
notes: as for B1
As for B15, the Kd in assay [1] turned out to be 0.269 nM; in assay [2], 1.37 nM; in assay [3], 0.441 nM.

B16: 399_Lib1_scFv (scFv)
scFv: QVQLVQSGAEVKKPGASVKVSCKVSGITFTSDYIHWVRQAPGKGLEWMGGMNPYSNKAIYAQKFQGRVTMTEDTSTDTAYMELSSLKSEDTAVYYCATGGLRIAARTSYFDYWGQGTLVTVSSSGGSTITSYNVYYTKLSSSGTDIQMTQSPSSVSASVGDRVTITCRASMDIAGSLAWYQQKPGKAPKLLIYDTSFRATGVPSRFSGSGSGTDFTLTISSLQPEDFANYYCQQYDNPPRLTFGGGTKVEIK
notes: as for B1
As for B16, the Kd in assay [1] is 0.127 nM; in assay [2], 2.62 nM; in assay [3], 2.05 nM.
